Data: US20170088585A1

Target: Aβ40 (UniProt P05067)
Experiment: cell-based or functional assay

Chain of Aβ40 (P05067 672-711 limits assumed): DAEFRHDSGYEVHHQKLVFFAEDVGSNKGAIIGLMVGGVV

Inhibition at 1:1 (ThT assay, Aβ:cyclic peptide) | Inhibition at 1:1/3 (ThT assay, Aβ:cyclic peptide) | Substance
69% | 37% | [lJwHsK]: Cyclo-D-leucine-L-noreucine-D-tryptophan-L-histidine-D-serine-L-lysine (peptide)
55% | 42% | [lZwHsK]: Cyclo-D-leucine-L-2-aminooctanoic acid-D-tryptophan-L-histidine-D-serine-L-lysine (peptide)
